Laboratory results reported in patent US20210246166A1 (Bayer, published 2021).
Bridge positions count the residues as written; N and C are the ends. Square brackets hold non-standard residues; d marks the D form. Ends that are not written are not given here. Oic = O=C(O)[C@@H]1C[C@@H]2CCCC[C@@H]2N1; tBuAla = CC(C)(C)C[C@H](N)C(=O)O; 2Pal = N[C@@H](Cc1ccccn1)C(=O)O; Pen = CC(C)(S)[C@H](N)C(=O)O; NMeC = CN[C@@H](CS)C(=O)O; NMeA = CN[C@@H](C)C(=O)O

T1: Recombinant human MASP1 enzyme (fragment corresponding to amino acids 297-699, C-terminal His Tag) (human, UniProt P48740 297-699)
T1 sequence: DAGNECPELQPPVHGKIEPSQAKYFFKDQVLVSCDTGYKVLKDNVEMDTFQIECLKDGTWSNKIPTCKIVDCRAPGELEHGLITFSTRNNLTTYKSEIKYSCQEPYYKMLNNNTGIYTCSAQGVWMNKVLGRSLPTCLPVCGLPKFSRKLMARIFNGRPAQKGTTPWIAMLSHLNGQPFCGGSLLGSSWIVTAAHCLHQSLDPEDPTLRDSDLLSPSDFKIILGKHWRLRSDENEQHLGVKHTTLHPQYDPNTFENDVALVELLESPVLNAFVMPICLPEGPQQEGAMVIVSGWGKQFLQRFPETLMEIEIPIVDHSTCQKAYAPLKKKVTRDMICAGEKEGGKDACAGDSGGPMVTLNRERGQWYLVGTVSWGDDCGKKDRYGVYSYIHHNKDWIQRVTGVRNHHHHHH


What was measured:
[1] = target: T1, Recombinant human MASP1 enzyme …; assay: cell-based or functional assay
[2] = target: Recombinant human MASP2 enzyme (fragment corresponding to amino acids 297-686, C-terminal His Tag) (human, UniProt O00187 297-686); assay: cell-based or functional assay
Chain of Recombinant human MASP2 enzyme (fragment corresponding to amino acids 297-686, C-terminal His Tag) (O00187 other isoform, or with tags, fused parts or gaps limits assumed): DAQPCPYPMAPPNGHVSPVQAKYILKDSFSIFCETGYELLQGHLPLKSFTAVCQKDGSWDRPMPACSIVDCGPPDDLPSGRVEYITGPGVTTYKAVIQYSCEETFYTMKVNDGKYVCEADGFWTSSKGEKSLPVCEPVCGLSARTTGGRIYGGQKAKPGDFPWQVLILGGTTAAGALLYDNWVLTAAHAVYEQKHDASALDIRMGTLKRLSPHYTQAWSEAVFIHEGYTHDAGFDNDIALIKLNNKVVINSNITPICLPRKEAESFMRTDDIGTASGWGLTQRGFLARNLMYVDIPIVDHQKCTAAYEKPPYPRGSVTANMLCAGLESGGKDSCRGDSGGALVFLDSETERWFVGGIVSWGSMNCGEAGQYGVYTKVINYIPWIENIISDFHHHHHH

Binder	human MASP1 IC50 [1] [nM]	human MASP2 IC50 [2] [nM]
[NMeA]ICSRSLP[Oic]I[Pen]IPQ-OH (disulfide 3-11; N-terminus assumed; SMILES CC[C@H](C)[C@H](NC(=O)[C@H](C)NC)C(=O)N[C@H]1CSSC(C)(C)[C@@H](C(=O)N[C@H](C(=O)N2CCC[C@H]2C(=O)N[C@@H](CCC(N)=O)C(=O)O)[C@@H](C)CC)NC(=O)[C@H]([C@@H](C)CC)NC(=O)[C@@H]2C[C@@H]3CCCC[C@@H]3N2C(=O)[C@@H]2CCCN2C(=O)[C@H](CC(C)C)NC(=O)[C@H](CO)NC(=O)[C@H](CCCNC(=N)N)NC(=O)[C@H](CO)NC1=O) [((N-Me)A)-IC+SRSLP-(Oic)-I-(Pen)+IPQ-OH]	4.4	170
AICSRS[tBuAla]PP[(2S)‑2‑(Amino)‑2‑((1S,3S)-3-hydroxycyclohexyl)acetic acid][NMeC]IPD-NH2 (disulfide 3-11) [AIC+SRS-((tBu)A)-PP-((2S)-2-(Amino)-2-[(1S,3S)-3-hydroxycyclohexyl]acetic acid)-((N-Me)C)+IPD-NH2]	4.7	1100
[2Pal]ICSRS[tBuAla]PPI[Pen]IPD-NH2 (disulfide 3-11; N-terminus assumed; SMILES CC[C@H](C)[C@H](NC(=O)[C@@H](N)Cc1ccccn1)C(=O)N[C@H]1CSSC(C)(C)[C@@H](C(=O)N[C@H](C(=O)N2CCC[C@H]2C(=O)N[C@@H](CC(=O)O)C(N)=O)[C@@H](C)CC)NC(=O)[C@H]([C@@H](C)CC)NC(=O)[C@@H]2CCCN2C(=O)[C@@H]2CCCN2C(=O)[C@H](CC(C)(C)C)NC(=O)[C@H](CO)NC(=O)[C@H](CCCNC(=N)N)NC(=O)[C@H](CO)NC1=O) [(2-Pal)-IC+SRS-((tBu)A)-PPI-(Pen)+IPD-NH2]	4.4	68
[(2S)‑2((Amino)-2-(tetrahydro-2H-pyran-4-yl))acetic acid]ICSRSLP[Oic]ICI-OH (disulfide 3-11) [((2S)-2[(Amino)-2-(tetrahydro-2H-pyran-4-yl)]acetic acid)-IC+SRSLP-(Oic)-IC+I-OH]	4.7	200

The remaining lines, values ahead:

human MASP1 IC50 [1] [nM]	human MASP2 IC50 [2] [nM]	Binder
4.5	170	FICSRS[tBuAla]PPI[NMeC]I-NH2 (disulfide 3-11; N-terminus assumed; SMILES CC[C@H](C)[C@H](NC(=O)[C@@H]1CSSC[C@H](NC(=O)[C@@H](NC(=O)[C@@H](N)Cc2ccccc2)[C@@H](C)CC)C(=O)N[C@@H](CO)C(=O)N[C@@H](CCCNC(=N)N)C(=O)N[C@@H](CO)C(=O)N[C@@H](CC(C)(C)C)C(=O)N2CCC[C@H]2C(=O)N2CCC[C@H]2C(=O)N[C@@H]([C@@H](C)CC)C(=O)N1C)C(N)=O) [FIC+SRS-((tBu)A)-PPI-((N-Me)C)+I-NH2]
4.5	68	YICSRS[tBuAla]PPI[NMeC]I-NH2 (disulfide 3-11; N-terminus assumed; SMILES CC[C@H](C)[C@H](NC(=O)[C@@H]1CSSC[C@H](NC(=O)[C@@H](NC(=O)[C@@H](N)Cc2ccc(O)cc2)[C@@H](C)CC)C(=O)N[C@@H](CO)C(=O)N[C@@H](CCCNC(=N)N)C(=O)N[C@@H](CO)C(=O)N[C@@H](CC(C)(C)C)C(=O)N2CCC[C@H]2C(=O)N2CCC[C@H]2C(=O)N[C@@H]([C@@H](C)CC)C(=O)N1C)C(N)=O) [YIC+SRS-((tBu)A)-PPI-((N-Me)C)+I-NH2]
4.4	850	AICSRS[tBuAla]P[Oic]I[NMeC]I-OH (disulfide 3-11; N-terminus assumed; SMILES CC[C@H](C)[C@H](NC(=O)[C@@H]1CSSC[C@H](NC(=O)[C@@H](NC(=O)[C@H](C)N)[C@@H](C)CC)C(=O)N[C@@H](CO)C(=O)N[C@@H](CCCNC(=N)N)C(=O)N[C@@H](CO)C(=O)N[C@@H](CC(C)(C)C)C(=O)N2CCC[C@H]2C(=O)N2[C@@H](C[C@@H]3CCCC[C@@H]32)C(=O)N[C@@H]([C@@H](C)CC)C(=O)N1C)C(=O)O) [AIC+SRS-((tBu)A)-P-(Oic)-I-((N-Me)C)+I-OH]
